No end group written: not given here.
Experiments:
Fusarium culmorum [1] = assay: Stability of the antifungal activity of the Mj-AMPs; format: cell-based
Procedure: Antifungal activity was measured by microspectrophotometry as previously described (Broekaert, WF et al; 1990; FEMS Microbiol Lett, 69, 55-60). Routinely, tests were performed with 20 μl of a (filter-sterilized) test solution and 80 μl of a fungal spore suspension (2×10^4 spores/ml) in half strength Potato Dextrose Broth (Difco). Control microcultures contained 20 μl of (sterile) distilled water and 80 μl of the fungal spore suspension. Unless otherwise stated the test organism was Fusarium culmorum and incubation was done at 25° C. for 48 hours. Percent growth inhibition is defined as 100 times the ratio of the corrected absorbance of the control microculture minus the corrected absorbance of the test microculture over the corrected absorbance at 595 nm of the control microculture. The corrected absorbance values equal the absorbance at 595 nm of the culture measured after 48 hours minus the absorbance at 595 nm measured after 30 min. Values of growth inhibition lower than 10% are not indicated on the chromatograms.
Table 1 summarises the results of further testing of the stability of the antifungal activity of the Mj-AMPs. Tests for antifungal activity were performed with 20 μl samples diluted five-fold with growth medium containing Fusarium culmorum spores (2×10^4 spores/ml), according to the assay method given in Example 2. Control samples contained either Mj-AMP1 at 500 μg/ml or Mj-AMP2 at 100 μg/ml in 10 mM sodium phosphate buffer (pH 7). Reduction was done by addition of DTT at 2.5 mM followed by incubation at 37° C. for 2 hours. pH stability was tested in the following buffers: 20 mM glycine-HCl (pH 2 and 3); 20 mM diethanolamine-HCl (pH 10); and 20 mM glycine-NaOH (pH 11). After 1 hour of incubation in the appropriate buffers the samples were dialyzed for 16 hours against 10 mm sodium phosphate buffer (pH 7). For digestions, proteases were added at 100 μg/ml and incubated at 37° C. for 16 hours.

Alternaria brassicola = format: cell-based; conditions: A brassicola, 48 hours of incubation
Ascochyta pisi = format: cell-based; conditions: A pisi, 48 hours of incubation
Botrytis cinerea = format: cell-based; conditions: B cinerea, 48 hours of incubation
[2] = tested on: Colletotrichum lindemuthianum; format: cell-based; conditions: C lindemuthianum, 48 hours of incubation
Fusarium culmorum [3] = format: cell-based; conditions: F culmorum, 48 hours of incubation
[4] = tested on: Fusarium oxysporum f.sp. pisi; format: cell-based; conditions: 48 hours of incubation
[5] = tested on: Fusarium oxysporum f.sp. lycopersici; format: cell-based; conditions: 48 hours of incubation
Nectria haematococca = format: cell-based; conditions: N haematococca, 48 hours of incubation
Phoma betae = format: cell-based; conditions: P betae, 48 hours of incubation
[6] = tested on: Pyrenophora tritici-repentis; format: cell-based; conditions: P tritici-repentis, 48 hours of incubation
Pyricularia oryzae = format: cell-based
Verticillium dahliae = format: cell-based; conditions: V dahliae, 48 hours of incubation
Venturia inaequalis = format: cell-based; conditions: V inaequalis, 10 days of incubation
Saccharomyces cerevisiae = assay: Inhibitory activity against yeast; format: cell-based; set-up: key: +++:complete inhibition; +:some inhibition; -:no inhibition
Procedure: The inhibitory activity of Mj-AMPs against yeast, Saccharomyces cerevisiae was tested. The results shown in Table 5 indicate that Mj-AMPs do inhibit the growth of yeast at concentrations of 500 μg/ml or above.

Bacillus megaterium = assay: Antibacterial activity in vitro test; format: cell-based; conditions: B megaterium, 48 hours
Procedure: (§1) The antibacterial activity of the Mj-AMPs was tested against a range of gram-positive and gram-negative bacteria: Bacillus megaterium, Sarcina lutea, Escherichia coli and Erwinia carotovora. β-purothionin and UDA were also tested for comparison (see Example 7). Tests were performed in soft agarose medium containing 1% tryptone and, with or without 1 mM CaCl2 and 50 mM KCl. Absorbance, 595 nm, of the culture was measured after 48 hours.

Erwinia carotovora = assay: Antibacterial activity in vitro test; format: cell-based; conditions: E carotovora, 48 hours
Procedure: as §1

Escherichia coli = assay: Antibacterial activity in vitro test; format: cell-based; conditions: E coli, 48 hours
Procedure: as §1

Sarcina lutea = assay: Antibacterial activity in vitro test; format: cell-based; conditions: S lutea, 48 hours
Procedure: as §1

Isoelectric focusing = format: physicochemical; conditions: isoelectric focusing on Immobiline Dry Strips
Procedure: PAS staining for glycoproteins was done by the method of Zacharius, RM et al (1969; Anal Biochem, 30, 148-152) using ovalbumin (3.2% carbohydrate) as a positive control sample. The pI values of Mj-AMP1 and Mj-AMP2 were determined by isoelectric focusing and found to be about 10.5 for both proteins. Isoelectric focussing was done on precast Immobiline Dry Strips (Pharmacia) using marker proteins in the pI range from 4.7 to 10.6 (Pharmacia).

[7] = MEDIUM +Ca/K (1 mM CaCl2 and 50 mM KCl)

With “Mj-AMP2: antimicrobial protein from Mirabilis jalapa seeds, dimer of two 3.5 kDa subunits, 36 residues, SEQ ID NO:2 (CIGNGGRCNENVGPPYCCSGFCLRQPNQGYGVCRNR; cysteine pairing not given here; also: homodimer)” the “Relative antifungal activity (shown as % of control activity)” value (Fusarium culmorum [1]; 80° C., 10 min) was 100 % of control activity, the “Relative antifungal activity (shown as % of control activity)” value (Fusarium culmorum [1]; 90° C., 10 min) was 100 % of control activity and the “Relative antifungal activity (shown as % of control activity)” value (Fusarium culmorum [1]; 100° C., 10 min) was 100 % of control activity. The “Relative antifungal activity (shown as % of control activity)” value (Fusarium culmorum [1]; Chymotrypsin digestion, 100 μg/ml, 37° C., 16 hours) was 50 % of control activity, the “Relative antifungal activity (shown as % of control activity)” value (Fusarium culmorum [1]; Control: Mj-AMP1 500 μg/ml or Mj-AMP2 100 μg/ml in 10 mM sodium phosphate buffer pH 7) was 100 % of control activity and the “Relative antifungal activity (shown as % of control activity)” value (Fusarium culmorum [1]; Pronase E digestion, 100 μg/ml, 37° C., 16 hours) was 25 % of control activity. The “Relative antifungal activity (shown as % of control activity)” value (Fusarium culmorum [1]; Proteinase K digestion, 100 μg/ml, 37° C., 16 hours) was 100 % of control activity, the “Relative antifungal activity (shown as % of control activity)” value (Fusarium culmorum [1]; Reduction: DTT 2.5 mM, 37° C., 2 hours) was < 3 % of control activity and the “Relative antifungal activity (shown as % of control activity)” value (Fusarium culmorum [1]; Trypsin digestion, 100 μg/ml, 37° C., 16 hours) was 100 % of control activity. For the same molecule, the “Relative antifungal activity (shown as % of control activity)” value (Fusarium culmorum [1]; pH 2, 60 min) was 100 % of control activity, the “Relative antifungal activity (shown as % of control activity)” value (Fusarium culmorum [1]; pH 3, 60 min) was 100 % of control activity and the “Relative antifungal activity (shown as % of control activity)” value (Fusarium culmorum [1]; pH 10, 60 min) was 100 % of control activity. For the same molecule, the “Relative antifungal activity (shown as % of control activity)” value (Fusarium culmorum [1]; pH 11, 60 min) was 100 % of control activity, the “Sensitivity to protease (in words)” value (Fusarium culmorum [1]; pronase E) was “most sensitive” and the IC50 (Alternaria brassicola) was 6 mg/L. It also gave an IC50 (Ascochyta pisi) of 6 µg/mL, an IC50 (Botrytis cinerea) of 2 µg/mL and an IC50 [2] of 1 mg/L. The IC50 (Fusarium culmorum [3]) was 3 µg/mL, the IC50 [4] was 5 µg/mL and the IC50 [5] was 10 mg/L. The IC50 (Nectria haematococca) was 0.5 mg/L, the IC50 (Phoma betae) was 6 mg/L and the IC50 [6] was 20 mg/L. It also gave an IC50 (Pyricularia oryzae) of 0.5 mg/L, an IC50 (Verticillium dahliae) of 0.5 mg/L and an IC50 (Venturia inaequalis) of 1 µg/mL. The “Inhibitory activity against yeast” value (Saccharomyces cerevisiae; with Ca/K, 5 μg/ml) was “-”, the “Inhibitory activity against yeast” value (Saccharomyces cerevisiae; with Ca/K, 50 μg/ml) was “+++” and the “Inhibitory activity against yeast” value (Saccharomyces cerevisiae; with Ca/K, 500 μg/ml) was “+++”. The “Inhibitory activity against yeast” value (Saccharomyces cerevisiae; without Ca/K, 5 μg/ml) was “+++”, the “Inhibitory activity against yeast” value (Saccharomyces cerevisiae; without Ca/K, 50 μg/ml) was “+++” and the “Inhibitory activity against yeast” value (Saccharomyces cerevisiae; without Ca/K, 500 μg/ml) was “+++”. For the same molecule, the IC50 (Bacillus megaterium; [7]) was 10 mg/L, the IC50 (Bacillus megaterium; MEDIUM -Ca/K) was 2 mg/L and the IC50 (Erwinia carotovora; [7]) was over 500 mg/L. For the same molecule, the IC50 (Erwinia carotovora; MEDIUM -Ca/K) was over 500 mg/L, the IC50 (Escherichia coli; [7]) was over 500 mg/L and the IC50 (Escherichia coli; MEDIUM -Ca/K) was over 500 mg/L. The IC50 (Sarcina lutea; [7]) was over 500 mg/L, the IC50 (Sarcina lutea; MEDIUM -Ca/K) was 50 mg/L and the pI (Isoelectric focusing) was “about 10.5”.

B1: UDA: known antifungal protein isolated from stinging nettle (Urtica dioica) rhizomes (protein, UniProt P11218 24-372, looked up)
Lectin/endochitinase 1: QRCGSQGGGGTCPALWCCSIWGWCGDSEPYCGRTCENKCWSGERSDHRCGAAVGNPPCGQDRCCSVHGWCGGGNDYCSGSKCQYRCSSSVRGPRVALSGNSTANSIGNVVVTEPLFDQMFSHRKDCPSQGFYSYHSFLVAAESFPAFGTIGDVATRKREVAAFLAHISQATSGERSDVENPHAWGLCHINTTTVTENDFCTSSDWPCAAGKKYSPRGPIQLTHNFNYGLAGQAIGEDLIQNPDLVEKDPIISFKTALWFWMSQHDNKPSCHDIVLNANSAANRIPNKGVIGNIISRAFGHDDFAVRSSSIGFYKRYCDMLGVSYGHDLKYWFDNTPSSEFQRIQMRVAA
With B1 the IC50 (Alternaria brassicola) was 200 mg/L, the IC50 (Ascochyta pisi) was 1,000 μg/ml and the IC50 (Botrytis cinerea) was > 1,000 μg/ml. The IC50 [2] was 20 mg/L, the IC50 (Fusarium culmorum [3]) was > 1,000 μg/ml and the IC50 [4] was > 1,000 μg/ml. It also gave an IC50 (Nectria haematococca) of 200 mg/L, an IC50 (Phoma betae) of 50 mg/L and an IC50 [6] of 200 mg/L. For the same molecule, the IC50 (Verticillium dahliae) was 80 mg/L, the IC50 (Venturia inaequalis) was 1,000 μg/ml and the IC50 (Bacillus megaterium; [7]) was over 500 mg/L. It also gave an IC50 (Bacillus megaterium; MEDIUM -Ca/K) of 250 mg/L, an IC50 (Erwinia carotovora; [7]) of over 500 mg/L and an IC50 (Erwinia carotovora; MEDIUM -Ca/K) of over 500 mg/L. For the same molecule, the IC50 (Escherichia coli; [7]) was over 500 mg/L, the IC50 (Escherichia coli; MEDIUM -Ca/K) was over 500 mg/L and the IC50 (Sarcina lutea; [7]) was over 500 mg/L. The IC50 (Sarcina lutea; MEDIUM -Ca/K) was over 500 mg/L.

From patent US5942663A, “Biocidal proteins” (Zeneca Limited, priority 1991, dated 1999)
